According to IntAct's records for PubMed 12826668:

B1: Disabled homolog 1 (Mus musculus), P97318 (parent)
chain: MSTETELQVAVKTSAKKDSRKKGQDRSEATLIKRFKGEGVRYKAKLIGIDEVSAARGDKLCQDSMMKLKGVVAGARSKGEHKQKIFLTISFGGIKIFDEKTGALQHHHAVHEISYIAKDITDHRAFGYVCGKEGNHRFVAIKTAQAAEPVILDLRDLFQLIYELKQREELEKKAQKDKQCEQAVYQTILEEDVEDPVYQYIVFEAGHEPIRDPETEENIYQVPTSQKKEGVYDVPKSQPNSQPLEDFESRFAAATPNRNLSMDFDELLEATKVSAVTQLELFGDMSTPPDITSPPTPATPGDAFLPSSSQTLPGSADVFGSMSFGTAAVPSGYVAMGAVLPSFWGQQPLVQQQIAMGAQPPVAQVIPGAQPIAWGQPGLFPATQQAWPTVAGQFPPAAFMPTQTVMPLAAAMFQGPLTPLATVPGTNDSARSSPQSDKPRQKMGKESFKDFQMVQPPPVPSRKPDQPSLTCTSEAFSSYFNKVGVAQDTDDCDDFDISQLNLTPVTSTTPSTNSPPTPAPRQSSPSKSSASHVSDPTADDIFEEGFESPSKSEEQEAPDGSQASSTSDPFGEPSGEPSGDNISPQDGS
partner: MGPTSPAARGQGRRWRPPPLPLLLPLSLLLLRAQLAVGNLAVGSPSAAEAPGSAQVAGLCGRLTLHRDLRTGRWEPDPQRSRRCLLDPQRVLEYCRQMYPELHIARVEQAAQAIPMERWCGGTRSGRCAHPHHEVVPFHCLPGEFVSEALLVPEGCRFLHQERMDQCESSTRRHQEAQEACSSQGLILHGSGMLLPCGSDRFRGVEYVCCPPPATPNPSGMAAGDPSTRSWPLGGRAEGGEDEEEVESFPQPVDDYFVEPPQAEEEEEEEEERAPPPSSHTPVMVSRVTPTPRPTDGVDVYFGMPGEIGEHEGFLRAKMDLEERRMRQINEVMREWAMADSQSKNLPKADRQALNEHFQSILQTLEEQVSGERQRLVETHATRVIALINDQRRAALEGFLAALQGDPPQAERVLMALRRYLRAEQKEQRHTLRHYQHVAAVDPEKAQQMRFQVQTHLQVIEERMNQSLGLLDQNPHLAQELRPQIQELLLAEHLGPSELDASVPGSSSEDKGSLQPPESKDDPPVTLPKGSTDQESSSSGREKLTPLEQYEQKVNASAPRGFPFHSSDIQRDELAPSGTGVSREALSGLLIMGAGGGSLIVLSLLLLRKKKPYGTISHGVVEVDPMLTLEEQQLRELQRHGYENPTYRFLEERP

Variants of: B1
Conditions: with aplp1_mouse Aplp1, Q03157

Variant	effect of a mutation on the interaction
MSTETELQVAVKTSAKKDSRKKGQDRSEATLIKRFKGEGVRYKAKLIGIDEVSAARGDKLCQDSMMKLKGVVAGARSKGEHKQKIFLTISFGGIKIFDEKTGALQHHHAVHEITYIAKDITDHRAFGYVCGKEGNHRFVAIKTAQAAEPVILDLRDLFQLIYELKQREELEKKAQKDKQCEQAVYQTILEEDVEDPVYQYIVFEAGHEPIRDPETEENIYQVPTSQKKEGVYDVPKSQPNSQPLEDFESRFAAATPNRNLSMDFDELLEATKVSAVTQLELFGDMSTPPDITSPPTPATPGDAFLPSSSQTLPGSADVFGSMSFGTAAVPSGYVAMGAVLPSFWGQQPLVQQQIAMGAQPPVAQVIPGAQPIAWGQPGLFPATQQAWPTVAGQFPPAAFMPTQTVMPLAAAMFQGPLTPLATVPGTNDSARSSPQSDKPRQKMGKESFKDFQMVQPPPVPSRKPDQPSLTCTSEAFSSYFNKVGVAQDTDDCDDFDISQLNLTPVTSTTPSTNSPPTPAPRQSSPSKSSASHVSDPTADDIFEEGFESPSKSEEQEAPDGSQASSTSDPFGEPSGEPSGDNISPQDGS [S114T]	disrupting interaction
MSTETELQVAVKTSAKKDSRKKGQDRSEATLIKRFKGEGVRYKAKLIGIDEVSAARGDKLCQDSMMKLKGVVAGARSKGEHKQKIFLTISFGGIKIFDEKTGALQHHHAVHEISYIAKDITDHRAFGYVCGKEGNRRFVAIKTAQAAEPVILDLRDLFQLIYELKQREELEKKAQKDKQCEQAVYQTILEEDVEDPVYQYIVFEAGHEPIRDPETEENIYQVPTSQKKEGVYDVPKSQPNSQPLEDFESRFAAATPNRNLSMDFDELLEATKVSAVTQLELFGDMSTPPDITSPPTPATPGDAFLPSSSQTLPGSADVFGSMSFGTAAVPSGYVAMGAVLPSFWGQQPLVQQQIAMGAQPPVAQVIPGAQPIAWGQPGLFPATQQAWPTVAGQFPPAAFMPTQTVMPLAAAMFQGPLTPLATVPGTNDSARSSPQSDKPRQKMGKESFKDFQMVQPPPVPSRKPDQPSLTCTSEAFSSYFNKVGVAQDTDDCDDFDISQLNLTPVTSTTPSTNSPPTPAPRQSSPSKSSASHVSDPTADDIFEEGFESPSKSEEQEAPDGSQASSTSDPFGEPSGEPSGDNISPQDGS [H136R]	decreasing interaction
MSTETELQVAVKTSAKKDSRKKGQDRSEATLIKRFKGEGVRYKAKLIGIDEVSAARGDKLCQDSMMKLKGVVAGARSKGEHKQKIFLTISFGGIKIFDEKTGALQHHHAVHEISYIAKDITDHRAFGYVCGKEGNHRFVAIKTAQAAEPVILDLRDLVQLIYELKQREELEKKAQKDKQCEQAVYQTILEEDVEDPVYQYIVFEAGHEPIRDPETEENIYQVPTSQKKEGVYDVPKSQPNSQPLEDFESRFAAATPNRNLSMDFDELLEATKVSAVTQLELFGDMSTPPDITSPPTPATPGDAFLPSSSQTLPGSADVFGSMSFGTAAVPSGYVAMGAVLPSFWGQQPLVQQQIAMGAQPPVAQVIPGAQPIAWGQPGLFPATQQAWPTVAGQFPPAAFMPTQTVMPLAAAMFQGPLTPLATVPGTNDSARSSPQSDKPRQKMGKESFKDFQMVQPPPVPSRKPDQPSLTCTSEAFSSYFNKVGVAQDTDDCDDFDISQLNLTPVTSTTPSTNSPPTPAPRQSSPSKSSASHVSDPTADDIFEEGFESPSKSEEQEAPDGSQASSTSDPFGEPSGEPSGDNISPQDGS [F158V]	disrupting interaction
